Reference: the supplement of paper PMC5998384

How the values were obtained:
[1] = test system: HeLa Kyoto; experiment: solubility in G1/S (NP-40 vs SDS abundance) (log2 ratio); higher = more soluble; conditions: cell cycle stage: G1/S
[2] = test system: HeLa Kyoto; experiment: melting temperature (median over replicates), in situ; higher = more thermally stable
[3] = test system: HeLa Kyoto; experiment: solubility change mitosis vs G1/S (difference of NP-40 vs SDS log2 ratios) (log2 ratio difference); higher = more soluble in mitosis
[4] = test system: HeLa Kyoto; experiment: thermal stability score vs G1/S (z-score of summed log2 fold changes over temperatures); higher = more thermally stable than in G1/S
[5] = cell cycle stage: early G1 (4.5 h after nocodazole release)
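Throughout, for melting temperature (median over replicates), in situ: HeLa Kyoto cells synchronized by double thymidine or nocodazole block, proteins quantified by TMT10plex mass spectrometry, three independent biological replicates.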
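Throughout, for solubility change mitosis vs G1/S (difference of NP-40 vs SDS log2 ratios): synchronized HeLa Kyoto cells (double thymidine block for G1/S, nocodazole release for mitosis), protein amounts in NP-40 versus SDS lysates quantified by mass spectrometry, three biological replicates.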
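Throughout, for solubility in G1/S (NP-40 vs SDS abundance): HeLa Kyoto cells arrested at G1/S by double thymidine block, proteins quantified by TMT10plex mass spectrometry in mild NP-40 versus SDS extracts, three biological replicates.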
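Throughout, for thermal stability score vs G1/S (z-score of summed log2 fold changes over temperatures): synchronized HeLa Kyoto cells, proteins quantified by TMT10plex mass spectrometry, three biological replicates, mitosis taken 0.5 h after nocodazole release, G1/S directly after double thymidine block.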

Substance: MYHSLSETRHPLQPEEQEVGIDPLSSYSNKSGGDSNKNGRRTSSTLDSEGTFNSYRKEWEELFVNNNYLATIRQKGINGQLRSSRFRSICWKLFLCVLPQDKSQWISRIEELRAWYSNIKEIHITNPRKVVGQQDLMINNPLSQDEGSLWNKFFQDKELRSMIEQDVKRTFPEMQFFQQENVRKILTDVLFCYARENEQLLYKQGMHELLAPIVFVLHCDHQAFLHASESAQPSEEMKTVLNPEYLEHDAYAVFSQLMETAEPWFSTFEHDGQKGKETLMTPIPFARPQDLGPTIAIVTKVNQIQDHLLKKHDIELYMHLNRLEIAPQIYGLRWVRLLFGREFPLQDLLVVWDALFADGLSLGLVDYIFVAMLLYIRDALISSNYQTCLGLLMHYPFIGDVHSLILKALFLRDPKRNPRPVTYQFHPNLDYYKARGADLMNKSRTNAKGAPLNINKVSNSLINFGRKLISPAMAPGSAGGPVPGGNSSSSSSVVIPTRTSAEAPSHHLQQQQQQQRLMKSESMPVQLNKGLSSKNISSSPSVESLPGGREFTGSPPSSATKKDSFFSNISRSRSHSKTMGRKESEEELEAQISFLQGQLNDLDAMCKYCAKVMDTHLVNIQDVILQENLEKEDQILVSLAGLKQIKDILKGSLRFNQSQLEAEENEQITIADNHYCSSGQGQGRGQGQSVQMSGAIKQASSETPGCTDRGNSDDFILISKDDDGSSARGSFSGQAQPLRTLRSTSGKSQAPVCSPLVFSDPLMGPASASSSNPSSSPDDDSSKDSGFTIVSPLDI [TBC1D5]
- solubility in G1/S (log2) [1]: 0.207
- melting temperature ([2]; cell cycle stage: G1/S): 50.7 °C
- melting temperature ([2]; cell cycle stage: mitosis): 50.1 °C
- solubility change mitosis (log2) [3]: -0.272
- thermal stability score [4, 5]: 0.296
- thermal stability score ([4]; cell cycle stage: mitosis): 0.901

Substance: MYIKQVIIQGFRSYRDQTIVDPFSSKHNVIVGRNGSGKSNFFYAIQFVLSDEFSHLRPEQRLALLHEGTGPRVISAFVEIIFDNSDNRLPIDKEEVSLRRVIGAKKDQYFLDKKMVTKNDVMNLLESAGFSRSNPYYIVKQGKINQMATAPDSQRLKLLREVAGTRVYDERKEESISLMKETEGKREKINELLKYIEERLHTLEEEKEELAQYQKWDKMRRALEYTIYNQELNETRAKLDELSAKRETSGEKSRQLRDAQQDARDKMEDIERQVRELKTKISAMKEEKEQLSAERQEQIKQRTKLELKAKDLQDELAGNSEQRKRLLKERQKLLEKIEEKQKELAETEPKFNSVKEKEERGIARLAQATQERTDLYAKQGRGSQFTSKEERDKWIKKELKSLDQAINDKKRQIAAIHKDLEDTEANKEKNLEQYNKLDQDLNEVKARVEELDRKYYEVKNKKDELQSERNYLWREENAEQQALAAKREDLEKKQQLLRAATGKAILNGIDSINKVLDHFRRKGINQHVQNGYHGIVMNNFECEPAFYTCVEVTAGNRLFYHIVDSDEVSTKILMEFNKMNLPGEVTFLPLNKLDVRDTAYPETNDAIPMISKLRYNPRFDKAFKHVFGKTLICRSMEVSTQLARAFTMDCITLEGDQVSHRGALTGGYYDTRKSRLELQKDVRKAEEELGELEAKLNENLRRNIERINNEIDQLMNQMQQIETQQRKFKASRDSILSEMKMLKEKRQQSEKTFMPKQRSLQSLEASLHAMESTRESLKAELGTDLLSQLSLEDQKRVDALNDEIRQLQQENRQLLNERIKLEGIITRVETYLNENLRKRLDQVEQELNELRETEGGTVLTATTSELEAINKRVKDTMARSEDLDNSIDKTEAGIKELQKSMERWKNMEKEHMDAINHDTKELEKMTNRQGMLLKKKEECMKKIRELGSLPQEAFEKYQTLSLKQLFRKLEQCNTELKKYSHVNKKALDQFVNFSEQKEKLIKRQEELDRGYKSIMELMNVLELRKYEAIQLTFKQVSKNFSEVFQKLVPGGKATLVMKKGDVEGSQSQDEGEGSGESERGSGSQSSVPSVDQFTGVGIRVSFTGKQGEMREMQQLSGGQKSLVALALIFAIQKCDPAPFYLFDEIDQALDAQHRKAVSDMIMELAVHAQFITTTFRPELLESADKFYGVKFRNKVSHIDVITAEMAKDFVEDDTTHG [SMC3]
- solubility in G1/S (log2) [1]: -0.182
- melting temperature ([2]; cell cycle stage: G1/S): 52.6 °C
- melting temperature ([2]; cell cycle stage: mitosis): 51.5 °C
- solubility change mitosis (log2) [3]: -0.0245
- thermal stability score [4, 5]: -0.978
- thermal stability score ([4]; cell cycle stage: mitosis): -1.78

Substance: MYO9B
- solubility in G1/S (log2) [1]: -0.141
- melting temperature ([2]; cell cycle stage: G1/S): 50.4 °C
- melting temperature ([2]; cell cycle stage: mitosis): 49.6 °C
- solubility change mitosis (log2) [3]: 0.00466
- thermal stability score [4, 5]: -0.189
- thermal stability score ([4]; cell cycle stage: mitosis): -0.197

Substance: MYOF
- solubility in G1/S (log2) [1]: -0.326
- melting temperature ([2]; cell cycle stage: G1/S): 53.8 °C
- melting temperature ([2]; cell cycle stage: mitosis): 53.4 °C
- solubility change mitosis (log2) [3]: -0.129
- thermal stability score [4, 5]: -1.57
- thermal stability score ([4]; cell cycle stage: mitosis): -1.2

Substance: MYTFVVRDENSSVYAEVSRLLLATGHWKRLRRDNPRFNLMLGERNRLPFGRLGHEPGLVQLVNYYRGADKLCRKASLVKLIKTSPELAESCTWFPESYVIYPTNLKTPVAPAQNGIQPPISNSRTDEREFFLASYNRKKEDGEGNVWIAKSSAGAKGEGILISSEASELLDFIDNQGQVHVIQKYLEHPLLLEPGHRKFDIRSWVLVDHQYNIYLYREGVLRTASEPYHVDNFQDKTCHLTNHCIQKEYSKNYGKYEEGNEMFFKEFNQYLTSALNITLESSILLQIKHIIRNCLLSVEPAISTKHLPYQSFQLFGFDFMVDEELKVWLIEVNGAPACAQKLYAELCQGIVDIAISSVFPPPDVEQPQTQPAAFIKL [TTL]
- solubility in G1/S (log2) [1]: 0.146
- melting temperature ([2]; cell cycle stage: G1/S): 53.9 °C
- melting temperature ([2]; cell cycle stage: mitosis): 53.4 °C
- solubility change mitosis (log2) [3]: -0.197
- thermal stability score [4, 5]: 0.614
- thermal stability score ([4]; cell cycle stage: mitosis): -0.119

Substance: NCAPD3
- solubility in G1/S (log2) [1]: -0.316
- melting temperature ([2]; cell cycle stage: G1/S): 48.4 °C
- melting temperature ([2]; cell cycle stage: mitosis): 49.8 °C
- solubility change mitosis (log2) [3]: -0.0894
- thermal stability score [4, 5]: 0.362
- thermal stability score ([4]; cell cycle stage: mitosis): 0.667
